Consider 1 molecule from patent US20240174741A1 (IMMUNOME, published 2024).

Experiment [1] addresses T1, IL-33 (human, UniProt O95760 1-270, limits assumed).
T1 sequence (looked up): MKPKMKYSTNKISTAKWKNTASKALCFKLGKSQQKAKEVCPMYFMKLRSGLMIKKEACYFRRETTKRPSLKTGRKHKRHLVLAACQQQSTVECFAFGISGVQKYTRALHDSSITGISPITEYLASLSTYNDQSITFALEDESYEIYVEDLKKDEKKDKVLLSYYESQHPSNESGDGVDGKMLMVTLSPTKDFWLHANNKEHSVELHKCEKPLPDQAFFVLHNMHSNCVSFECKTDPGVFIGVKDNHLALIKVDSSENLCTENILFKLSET
The experiment is described as follows: CDI HuProt native protein microarray, IL-1 family members. The method, then:
(§1) To confirm specificity to IL-38, several lead candidate antibodies (CD1-M3, CD1-M8, NZB-M8) were analyzed in a High-Spec Cross-reactivity Assay using native HuProt arrays (CDI Laboratories). […] of antibody was incubated overnight in a cold room, washed, and probed with anti-human secondary antibodies. Fluorescence intensity (F635) as an indicator of binding was measured for each spot. CDI software quantified the specificity of the antibody to each spot based on a Z-score. Z-score is defined as [F635−(Average F635 on array)]/(Standard deviation of F635 on array). S-score is defined as the difference between the Z-score of a given protein and the Z-score of the next highest protein.

A further experiment addresses T2, Hnrnph1.
T2 construct: The lower-case gene symbol may mean a mouse clone
T2 sequence (P31943 1-449, species assumed, looked up): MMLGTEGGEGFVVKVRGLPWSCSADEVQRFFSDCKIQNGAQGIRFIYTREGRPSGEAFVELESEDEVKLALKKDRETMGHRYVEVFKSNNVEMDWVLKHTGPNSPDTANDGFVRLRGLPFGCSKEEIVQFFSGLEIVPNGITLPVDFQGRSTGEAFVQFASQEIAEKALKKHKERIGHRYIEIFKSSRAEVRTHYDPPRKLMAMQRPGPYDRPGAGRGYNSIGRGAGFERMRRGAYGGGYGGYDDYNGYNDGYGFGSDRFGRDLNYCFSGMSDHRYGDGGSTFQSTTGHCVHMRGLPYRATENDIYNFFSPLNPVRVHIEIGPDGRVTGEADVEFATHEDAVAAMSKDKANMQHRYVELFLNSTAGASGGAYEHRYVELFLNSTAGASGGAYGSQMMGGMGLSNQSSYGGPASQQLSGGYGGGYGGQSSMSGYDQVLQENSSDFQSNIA
The experiment is described as follows: CDI HuProt native protein microarray (High-Spec cross-reactivity assay). As to the method: as §1

In the next experiment the target is T3, IL-37 (human, UniProt Q9NZH6 1-218, limits assumed).
T3 sequence (looked up): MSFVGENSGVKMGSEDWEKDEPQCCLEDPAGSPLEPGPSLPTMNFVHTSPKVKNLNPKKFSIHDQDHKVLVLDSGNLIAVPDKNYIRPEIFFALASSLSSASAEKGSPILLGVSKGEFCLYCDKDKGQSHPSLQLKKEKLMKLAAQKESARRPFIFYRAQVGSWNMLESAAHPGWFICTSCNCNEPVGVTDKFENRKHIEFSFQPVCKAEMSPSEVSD
The experiment is described as follows: CDI HuProt native protein microarray. As to the method: as §1

The target of another experiment is T4, IL-36a (human, UniProt Q9UHA7 1-158, limits assumed).
T4 sequence (looked up): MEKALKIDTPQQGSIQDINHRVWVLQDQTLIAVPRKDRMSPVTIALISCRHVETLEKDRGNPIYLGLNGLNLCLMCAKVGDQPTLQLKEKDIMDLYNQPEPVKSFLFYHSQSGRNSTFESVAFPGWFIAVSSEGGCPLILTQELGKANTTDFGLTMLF
Description: CDI HuProt native protein microarray. The method, then: as §1

A further experiment concerns the target T5, IL-36g (human, UniProt Q9NZH8 1-169, limits assumed).
T5 sequence (looked up): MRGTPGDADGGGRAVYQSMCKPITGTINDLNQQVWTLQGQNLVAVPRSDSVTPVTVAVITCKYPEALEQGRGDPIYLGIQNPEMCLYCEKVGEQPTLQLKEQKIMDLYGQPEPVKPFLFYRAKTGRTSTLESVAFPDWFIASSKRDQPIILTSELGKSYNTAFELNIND
The experiment is described as follows: CDI HuProt native protein microarray. The method, then: as §1

Another experiment deals with T6, IL-18 (human, UniProt Q14116 1-193, limits assumed).
T6 sequence (looked up): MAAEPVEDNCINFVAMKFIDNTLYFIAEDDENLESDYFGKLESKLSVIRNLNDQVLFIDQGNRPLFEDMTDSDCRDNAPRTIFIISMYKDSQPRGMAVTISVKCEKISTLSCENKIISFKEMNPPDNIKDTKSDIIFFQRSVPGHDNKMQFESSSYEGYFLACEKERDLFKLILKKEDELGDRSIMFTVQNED
Description: CDI HuProt native protein microarray. As to the method: as §1

The target in another experiment is IL-1Ra (human, UniProt P18510 26-177, limits assumed). Description: CDI HuProt native protein microarray. The method, then:
as §1

Another experiment addresses T7, IL-36Ra (human, UniProt Q9UBH0 1-155, limits assumed).
T7 sequence (looked up): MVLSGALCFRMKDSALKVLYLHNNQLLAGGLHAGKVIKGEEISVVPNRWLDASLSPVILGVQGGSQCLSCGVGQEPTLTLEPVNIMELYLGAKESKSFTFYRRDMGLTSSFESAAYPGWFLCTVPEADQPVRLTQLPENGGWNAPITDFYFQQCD
Description: CDI HuProt native protein microarray. As to the method:
as §1

Experiment [2] has as its target T1, IL-33. Description: CDI HuProt native protein microarray. As to the method:
as §1

For a further experiment, the target named is IL-1β (human, UniProt P01584 1-269, limits assumed). The experiment is described as follows: CDI HuProt native protein microarray. The method, then:
as §1

Another experiment concerns the target T8, IL-36b (human, UniProt Q9NZH7 1-164, limits assumed).
T8 sequence (looked up): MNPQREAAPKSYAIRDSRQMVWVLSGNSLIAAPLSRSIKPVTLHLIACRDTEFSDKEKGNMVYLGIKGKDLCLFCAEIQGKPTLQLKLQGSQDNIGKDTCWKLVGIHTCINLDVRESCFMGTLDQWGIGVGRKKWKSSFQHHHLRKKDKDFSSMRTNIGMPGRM
The experiment is described as follows: CDI HuProt native protein microarray. The method, then: as §1

Another experiment has as its target T9, IL-1α (human, UniProt P01583 1-271, limits assumed).
T9 sequence (looked up): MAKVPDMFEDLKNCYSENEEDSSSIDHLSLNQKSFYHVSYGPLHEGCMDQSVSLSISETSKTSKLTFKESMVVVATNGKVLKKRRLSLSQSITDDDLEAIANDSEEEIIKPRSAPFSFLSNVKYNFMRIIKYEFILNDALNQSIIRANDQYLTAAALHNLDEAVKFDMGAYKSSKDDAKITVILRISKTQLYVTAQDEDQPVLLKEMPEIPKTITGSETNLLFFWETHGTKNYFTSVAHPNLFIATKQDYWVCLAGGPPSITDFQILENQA
Description: CDI HuProt native protein microarray. The method, then:
as §1

IL-1Ra, sequence (P18510 26-177 limits assumed): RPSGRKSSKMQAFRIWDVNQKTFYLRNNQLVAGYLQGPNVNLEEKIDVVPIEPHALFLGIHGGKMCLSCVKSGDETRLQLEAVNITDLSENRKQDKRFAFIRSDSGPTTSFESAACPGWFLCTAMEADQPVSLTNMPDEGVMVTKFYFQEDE

B1: CD1-M3 (antibody, V domains shown)
VH: EVQLQQSGPELVKPGASVKIPCKASGYTFTDYNMDWVKQSHGKSLEWIGDINPNNGGTIYNQKFKGKATLTVDKSSSTAYMELRSLTSEDTAVYYCSRPYYGYFAYWGQGTLVTVSA
VL: DVVMTQSPLSLPVSLGDQASISCRSSQSLVHSHENTFLHWYLQKPGQSPKLLIYRVSNRFSGVPDRFSGSGSGTDFTLKISRVEAEDLGVYFCSQSTHVPLTFGAGTKLELK
notes: Mouse monoclonal from a hybridoma of a CD-1 mouse immunized with full length recombinant IL-38
Regarding B1, the values for the Z-score with IL-33 [1] and with Hnrnph1 were -0.02 and 10.6, respectively. The F635 with Hnrnph1 is 4130. The molecule further had a S-Score in the experiment with Hnrnph1 of 5. The binding result in the experiment with IL-37, with IL-36a, with IL-36g, in the experiment with IL-18, with IL-1Ra and with IL-36Ra was “no binding” throughout. Further, the binding result with IL-33 [2], with IL-1β, with IL-36b and with IL-1α was “no binding” each time.
